Results: patent US20070231333A1, “ANTI-5T4 ANTIBODIES AND USES THEREOF” (Wyeth, priority 2006, published 2007)

How the values were obtained:
[1] = biological target: T1, 5T4-expressing PC14PE6 cells (Homo sapiens, UniProt Q13641); experiment: FACS binding to 5T4-expressing PC14PE6 cells; type: cell-based
T1 construct: endogenous in cells; host or cells: PC14PE6 cells
T1 sequence (Q13641 32-420): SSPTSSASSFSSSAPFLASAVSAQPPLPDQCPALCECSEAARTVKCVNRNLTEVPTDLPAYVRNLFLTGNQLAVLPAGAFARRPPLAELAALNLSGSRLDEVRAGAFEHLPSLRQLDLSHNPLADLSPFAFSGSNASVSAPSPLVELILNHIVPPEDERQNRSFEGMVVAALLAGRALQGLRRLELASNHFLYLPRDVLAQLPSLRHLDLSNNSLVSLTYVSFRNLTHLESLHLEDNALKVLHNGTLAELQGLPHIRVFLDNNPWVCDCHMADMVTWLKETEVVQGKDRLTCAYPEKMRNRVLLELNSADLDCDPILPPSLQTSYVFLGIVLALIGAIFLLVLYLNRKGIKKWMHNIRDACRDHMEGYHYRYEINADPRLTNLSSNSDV
Protocol: The ability of the H8, A1, A2, and A3 antibodies to bind cells expressing 5T4 antigen was assayed using fluorescence activated cell sorting (FACS) of PC14PE6 cells.

[2] = biological target: T2, human 5T4 antigen (Homo sapiens, UniProt Q13641); experiment: BIACORE analysis of antibody binding to human 5T4 antigen immobilized on a CM5 chip; conditions: murine antibodies, Table 3
T2 sequence (Q13641 32-420): T1 sequence (Q13641 32-420)
Protocol: To assess the binding specificity and affinity of the A1, A2, and A3 antibodies, BIACORE® analysis was performed using human 5T4 antigen immobilized on a CM5 chip. BIACORE® technology utilizes changes in the refractive index at the surface layer upon binding of the antibody to the 5T4 antigen immobilized on the layer. Binding is detected by surface plasmon resonance (SPR) of laser light refracting from the surface. Analysis of the signal kinetics on rate and off rate allows discrimination between non-specific and specific interactions. The H8 anti-5T4 antibody was used as a control. H8 is a hybridoma-generated monoclonal mouse IgG1 antibody described in PCT International Publication No. WO 98/55607 and in Forsberg et al. (1997) J. Biol. Chem. 272(19):[…].
To assess the binding specificity and affinity of the chimeric and humanized H8, A1, A2, and A3 antibodies, BIACORE® analysis was performed using human 5T4 antigen immobilized on a CM5 chip. See Example 2.

B1: A2: murine anti-5T4 monoclonal antibody (IgG2b heavy chain); VH residues 19-135 of SEQ ID NO:6, VL residues 23-130 of SEQ ID NO:8 (antibody, listed as Mus musculus, V domains shown)
VH: MEWRIFLFILSGTAGVHSQVQLQQSRPELVKPGASVKMSCKASGYTFTDYVISWVKQRTGQGLEWIGEIYPGSNSIYYNEKFKGRATLTADKSSSTAYMQLSSLTSEDSAVYFCAMGGNYGFDYWGQGTTLTVSS
VL: MDFQVQIFSFLLISASVIMSRGQIVLTQSPAIMSASLGERVTLTCTASSSVNSNYLHWYQQKPGSSPKLWIYSTSNLASGVPARFSGSGSGTSYSLTISSMEAEDAATYYCHQYHRSPLTFGAGTKLELK
modifications: (1)..(18) leader sequence; (19)..(135) heavy chain variable region; (44)..(53) CDR1; (68)..(84) CDR2; (117)..(124) CDR3; (1)..(22) leader sequence; (23)..(130) light chain variable region; (46)..(56) CDR1; (73)..(79) CDR2; (112)..(120) CDR3
binding to 5T4-expressing PC14PE6 cells (in words) [1]: significantly lower | KA [2]: 6.5e+07 M⁻¹ | ka [2]: 56000 M⁻¹ s⁻¹ | kd [2]: 0.00087 s⁻¹
